From publication PMC12903857

Key:
15-mer B-RAF peptide = assay: fluorescence polarisation; fluorescence anisotropy protein titration: 14-3-3σ titrated into 10 nM labeled peptide in the presence of a saturating concentration (100 μM) of a covalent compound, which is named in the quantity of each row; apparent
15-mer A-RAF peptide [1] = assay: fluorescence polarisation; fluorescence anisotropy; Kd of the 15-mer peptides, told apart by the paper from the appKd in the presence of DMSO
15-mer A-RAF peptide [2] = assay: fluorescence polarisation; fluorescence anisotropy protein titration: 14-3-3σ titrated into 10 nM labeled peptide in the presence of DMSO; apparent

## 14-3-3σ (from UniProt P31947 1-248) (natural protein)
15-mer B-RAF peptide
  fold stabilization with 22 (against DMSO): 448 fold
  fold stabilization with 23 (against DMSO): 448 fold
15-mer A-RAF peptide [1]
  Kd: 8 µM
15-mer A-RAF peptide [2]
  Kd: 3 µM
